Drawing on PMC8445900, this text covers Kd and dH for one substance.

The target of this test is SARS-CoV-2 spike protein receptor-binding domain, wildtype (SARS-CoV-2) (UniProt P0DTC2). Nature of the test: ITC.

Take “CC12.1 single-chain fragment variable (scFv)”: the Kd was found to be 28 nM and the dH is -4.8 kcal/mol.
